Results taken from patent US20200231684A1 (published 2020).
Where a chain is given by its changes, count along the chain named.

B1: antibody 172C8 (antibody, V domains shown)
VH: EVQLQQSGPELVKPGASVKLSCKASGYTFTDNYMNWVRQSHGKSLEWIGRVNPSNGDTKYNQNFKGKATLTVDKSLSTAYMQLNGLTSEDSAVYYCGRTKNFYSSYSYDDAMDYWGQGTSVTVSS
VL: DIQMTQSPASQSASLGESVTFTCLASQTIGTWLAWYQQRPGKSPQLLIYAATSLADGVPSRFSGSGSGTQFSFNIRSLQAEDFASYYCQQVYTTPLTFGGGTKLEIK
notes: Mouse monoclonal from hybridoma; also called 172C8B12
B2: antibody 89A12 (antibody, V domains shown)
VH: EVQLQQSGAELVRPGASVRLSCTASGFNIKDDYIHWVRQRPKQGLEWLGRIDPANGNTKYDPRFQDKATITADTSSNTAYLHLSSLTSEDTAVYYCAKSFPDNYYSYDDAFAYWGQGTLVTVSA
VL: DIQMTQSPASQSASLGESVTFSCLASQTIGTWLGWYQQKPGKSPQLLIYRATSLADGVPSRFSGSGSGTNFSFKISSLQAEDLASYYCQQLYSGPYTFGGGTKLEIR
notes: Mouse monoclonal from hybridoma; also called 89A12B8
B3: antibody 67E7 (antibody, V domains shown)
VH: B2 VH with L11F, R19K, L20F, K42E, L48V, D61A, R63K, H82Q, D102N
VL: B2 VL with S22T, A51S, S53T, N70K, E81A, L83F, G94A
notes: Mouse monoclonal from hybridoma; also called 67E7E8
B4: antibody 76E10 (antibody, V domains shown)
VH: QVQLKESGPVLVAPSQSLSITCTVSGFSLTNYGVHWVRQPPGKGLEWLGVIWPVGSTNYNSALMSRLSIHKDNSKSQVFLRMNSLQTDDTAIYYCAKMDWDDFFDYWGQGTTLTVSS
VL: DIVMTQSQKFMSATVGGRVNITCKASQNVGRAVAWYQQKPGQSPKLLTHSASNRYTGVPDRFTGSGSGTDFTLTITNMQSEDLADYFCQQYSSYPLTFGAGTKLDLK
notes: Mouse monoclonal from hybridoma; also called 76E10E8
B5: Antibody C1 (antibody, human IgG1, kappa, L234A L235A, V domains shown)
VH: QVQLQESGPGLVAPSETLSLTCTVSGFSLTDYAVHWIRQFPGKGLEWIGVIWSDGSTDFNAPFKSRVTISKDTSKNQVSFKLSSVTTDDTAVYYCARKGGYSGSWFAYWGQGTLVTVSS
VL: EIVMTQSPATLSVSPGVRATLSCKASQDVGTNVLWYQQKPGQAPRPLIYSASYRHSGIPARFSGSGSGTEFTLTISSLQSEDFAEYYCQQYSRYPLTFGQGTKLEIKR
B6: Antibody C2 (antibody, human IgG1, kappa, L234A L235A, V domains shown)
VH: B5 VH with A13K, L20I, F40P, F59Y, T73N, N76S, L82M, T87A
VL: B5 VL with A60D, E85V
B7: Antibody C3 (antibody, human IgG1, kappa, L234A L235A, V domains shown)
VH: B5 VH
VL: B5 VL with A60D, E85V

target: cynomolgus IL-36R on BaF/3 cells (cynomolgus, UniProt A0A2K5WSK9 20-558); experiment: cell-based or functional assay
Sequence (A0A2K5WSK9 entry or part of it): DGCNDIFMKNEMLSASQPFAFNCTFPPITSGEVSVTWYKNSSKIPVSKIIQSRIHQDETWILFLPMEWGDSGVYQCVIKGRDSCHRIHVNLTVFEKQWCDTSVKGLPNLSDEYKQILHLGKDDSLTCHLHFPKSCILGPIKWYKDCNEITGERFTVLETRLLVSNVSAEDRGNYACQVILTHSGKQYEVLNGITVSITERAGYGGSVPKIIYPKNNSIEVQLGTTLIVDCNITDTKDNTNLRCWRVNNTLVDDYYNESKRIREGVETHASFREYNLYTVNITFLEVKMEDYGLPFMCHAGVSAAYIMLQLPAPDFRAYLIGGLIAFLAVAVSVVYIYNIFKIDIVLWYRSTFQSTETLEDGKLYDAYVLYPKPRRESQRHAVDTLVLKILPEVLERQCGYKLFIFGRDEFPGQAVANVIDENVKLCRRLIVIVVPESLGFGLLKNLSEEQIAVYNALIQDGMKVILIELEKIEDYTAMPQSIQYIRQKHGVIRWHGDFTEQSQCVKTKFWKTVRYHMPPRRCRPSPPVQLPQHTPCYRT

| Binder | IC90, pNFκB, BaF/3 cynomolgus IL-36R cells, trun-IL-36a | IC90, pNFκB, BaF/3 cynomolgus IL-36R cells, trun-IL-36b | IC90, pNFκB, BaF/3 cynomolgus IL-36R cells, trun-IL-36g |
| --- | --- | --- | --- |
| B1 | > 4000 nM | > 333 nM | > 333 nM |
| B2 | > 4000 nM | > 333 nM | > 333 nM |
| B3 | > 4000 nM | > 333 nM | > 333 nM |
| B4 | > 4000 nM | > 333 nM | > 333 nM |

target: T1, human IL-36R on cells (human, UniProt Q9HB29 20-575); experiment: cell-based or functional assay
T1 sequence (looked up): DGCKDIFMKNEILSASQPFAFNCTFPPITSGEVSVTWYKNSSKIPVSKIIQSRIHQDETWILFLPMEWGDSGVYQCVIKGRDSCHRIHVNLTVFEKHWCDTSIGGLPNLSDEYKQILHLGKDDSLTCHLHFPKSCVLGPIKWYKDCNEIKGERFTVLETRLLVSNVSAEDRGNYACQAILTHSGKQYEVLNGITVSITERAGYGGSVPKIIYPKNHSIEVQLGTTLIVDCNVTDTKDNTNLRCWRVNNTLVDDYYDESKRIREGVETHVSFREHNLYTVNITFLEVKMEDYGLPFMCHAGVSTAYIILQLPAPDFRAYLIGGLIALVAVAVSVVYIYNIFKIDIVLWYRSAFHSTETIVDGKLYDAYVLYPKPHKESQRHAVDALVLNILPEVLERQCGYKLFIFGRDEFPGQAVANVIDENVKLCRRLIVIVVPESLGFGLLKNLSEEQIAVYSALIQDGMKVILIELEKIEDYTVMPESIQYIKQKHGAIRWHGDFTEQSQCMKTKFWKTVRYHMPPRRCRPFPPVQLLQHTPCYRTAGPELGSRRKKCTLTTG

| Binder | IC90, pNFκB, NCI/ADR-RES cells, trun-IL-36g |
| --- | --- |
| B1 | 3.8 nM |
| B2 | 145 nM |
| B3 | > 67 nM |
| B4 | 1.9 nM |

target: T2, recombinant human IL-36R (ECD) (human, UniProt Q9HB29 20-332); experiment: SPR (ProteOn), single IL-36R surface coat concentration
T2 construct: range 20-332; also called IL-1RL2; IL-1Rrp2
T2 sequence (looked up): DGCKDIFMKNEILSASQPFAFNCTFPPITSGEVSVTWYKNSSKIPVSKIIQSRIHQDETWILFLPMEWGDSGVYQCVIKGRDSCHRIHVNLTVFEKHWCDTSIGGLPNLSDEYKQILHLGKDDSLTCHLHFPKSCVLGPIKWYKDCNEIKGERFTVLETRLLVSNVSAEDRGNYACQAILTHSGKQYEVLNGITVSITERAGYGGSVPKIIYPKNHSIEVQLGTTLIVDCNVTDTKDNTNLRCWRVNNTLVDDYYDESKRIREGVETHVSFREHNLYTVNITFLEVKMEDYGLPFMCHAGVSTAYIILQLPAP
Protocol: A) Kinetics and binding affinities of anti-IL-36R antibodies binding to recombinant human IL-36R were measured using the Proteon (Bio-Rad, Hercules, Calif.) using material generated from hybridoma following single column purification. […] Binding of the chimeric anti-IL36R IgGs is equivalent to the respective mouse leads.

| Binder | Kd |
| --- | --- |
| B1 | < 0.1 nM |
| B2 | < 0.1 nM |
| B3 | < 0.1 nM |
| B4 | < 0.1 nM |

target: T1, human IL-36R on cells; experiment: cell-based or functional assay; remark: another data set of the same source

| Binder | IC90, pNFκB, NCI/ADR-RES cells, trun-IL-36a | IC90, pNFκB, NCI/ADR-RES cells, trun-IL-36b | IC90, pNFκB, NCI/ADR-RES cells, trun-IL-36g |
| --- | --- | --- | --- |
| B5 | 4.6 nM | 5.5 nM | 3.4 nM |
| B6 | 9.7 nM | 8.6 nM | 6.1 nM |
| B7 | 9.8 nM | 5.6 nM | 5.1 nM |

target: T3, human IL-1R1 (human, UniProt P14778 18-336, limits assumed); experiment: BLI (Fortebio Octet), antibody injected over antigen surface
T3 construct: also called IL-1RI
T3 sequence (looked up): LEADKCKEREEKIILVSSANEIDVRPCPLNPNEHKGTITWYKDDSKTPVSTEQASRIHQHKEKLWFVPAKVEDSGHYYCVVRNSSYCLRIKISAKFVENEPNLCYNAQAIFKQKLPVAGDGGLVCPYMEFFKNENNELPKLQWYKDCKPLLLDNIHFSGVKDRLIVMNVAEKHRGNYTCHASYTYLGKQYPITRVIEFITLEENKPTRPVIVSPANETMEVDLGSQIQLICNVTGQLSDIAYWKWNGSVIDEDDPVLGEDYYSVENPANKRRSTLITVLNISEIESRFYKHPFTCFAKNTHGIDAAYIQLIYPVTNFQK
Protocol: (§1) B) Molecular selectivity over mouse IL-36R and human IL-1R1 The mouse and chimeric anti-IL-36R antibodies were also injected over either a mouse IL-36R or a human IL-1R1 surface at a concentration of 100 nM. The binding signal to mouse IL-36R and to human IL-1R1 for these antibodies measured using the Fortebio Octet (Fortebio, Menlo Park, Calif.) is zero, which indicates these antibodies selectively bind to human IL-36R.

| Binder | binding result |
| --- | --- |
| B1 | no binding (tested: 100 nM) |
| B2 | no binding (tested: 100 nM) |
| B3 | no binding (tested: 100 nM) |
| B4 | no binding (tested: 100 nM) |

target: T4, mouse IL-36R (mouse, UniProt Q9ERS7 22-338); experiment: as above
T4 sequence (looked up): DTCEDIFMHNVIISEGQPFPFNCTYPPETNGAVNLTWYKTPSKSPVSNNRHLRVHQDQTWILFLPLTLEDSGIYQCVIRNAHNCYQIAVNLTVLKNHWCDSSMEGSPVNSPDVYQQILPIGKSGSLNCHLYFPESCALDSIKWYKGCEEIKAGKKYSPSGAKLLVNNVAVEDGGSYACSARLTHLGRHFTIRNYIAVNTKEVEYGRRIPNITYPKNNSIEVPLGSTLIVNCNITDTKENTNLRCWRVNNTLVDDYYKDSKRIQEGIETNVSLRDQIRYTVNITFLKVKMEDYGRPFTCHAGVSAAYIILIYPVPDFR
Protocol: as §1

| Binder | binding result |
| --- | --- |
| B1 | no binding (tested: 100 nM) |
| B2 | no binding (tested: 100 nM) |
| B3 | no binding (tested: 100 nM) |
| B4 | no binding (tested: 100 nM) |

target: T1, human IL-36R on cells; experiment: flow cytometry, HEK293 cells transfected with full-length human IL-36R
Protocol: HEK293 cells transfected with full-length human IL-36R or NCI/ADR-RES cells were passaged for 24 hours prior to staining. Cells were removed from flasks by rinsing with 10 ml of 5 mM EDTA in PBS, and then incubated at 37° C. for 10 min with an additional 10 ml of 5 mM EDTA and 2.5 ml of Accumax to declump/disperse cells. Antibodies were then diluted to specified concentrations in PBS+2% BSA, and cells incubated for 20 min at room temperature. Excess antibody was then washed by adding 200 μl of PBS and then centrifuged. Secondary reagent was then added at 50 μl per well and cells are incubated for 15 min at room temperature and then washed as above. Cells were resuspended in 200 μl PBS and analyzed by flow cytometry.

| Binder | EC50 |
| --- | --- |
| B2 | 0.609 nM |
| B3 | 0.532 nM |
| B4 | 0.426 nM |
